{"source": "paper PMC4442680", "about": "“Crystal structure of human nicotinic acid phosphoribosyltransferase” (FEBS Open Bio, 2015)", "proteins": {"B1": {"name": "human nicotinic acid phosphoribosyltransferase (enzyme, UniProt Q6XQN6 1-538, looked up)", "chain": "MAAEQDPEARAAARPLLTDLYQATMALGYWRAGRARDAAEFELFFRRCPFGGAFALAAGLRDCVRFLRAFRLRDADVQFLASVLPPDTDPAFFEHLRALDCSEVTVRALPEGSLAFPGVPLLQVSGPLLVVQLLETPLLCLVSYASLVATNAARLRLIAGPEKRLLEMGLRRAQGPDGGLTASTYSYLGGFDSSSNVLAGQLRGVPVAGTLAHSFVTSFSGSEVPPDPMLAPAAGEGPGVDLAAKAQVWLEQVCAHLGLGVQEPHPGERAAFVAYALAFPRAFQGLLDTYSVWRSGLPNFLAVALALGELGYRAVGVRLDSGDLLQQAQEIRKVFRAAAAQFQVPWLESVLIVVSNNIDEEALARLAQEGSEVNVIGIGTSVVTCPQQPSLGGVYKLVAVGGQPRMKLTEDPEKQTLPGSKAAFRLLGSDGSPLMDMLQLAEEPVPQAGQELRVWPPGAQEPCTVRPAQVEPLLRLCLQQGQLCEPLPSLAESRALAQLSLSRLSPEHRRLRSPAQYQVVLSERLQALVNSLCAGQSP", "notes": "human nicotinic acid phosphoribosyltransferase (EC 2.4.2.11); also called human NaPRTase; hNaPRTase"}}, "target": "the molecule itself", "assay": "crystal structure; ligand-free enzyme; sitting drops, 15 mg/mL protein preincubated with 1 mM Acetyl-CoA and 5 mM DTT, 0.1 M Sodium cacodylate pH 6.5, 1.7 M Sodium acetate, 4 °C; P212121, two molecules per asymmetric unit; 2.9 Å"}
{"protein": "B1", "values": [{"measurement": "stoichiometry N", "value": 2}]}
